Laboratory results: patent US20090274620A1 (WILEX, published 2009)

Biological target: G250 antigen (MN antigen), complete protein, aa 1-459 (UniProt Q16790 38-459)
Assay: immunohistochemistry of G250-negative cells transiently transfected with the complete cDNA

B1: monoclonal antibody G250 (murine, from hybridoma DSM ACC 2526) (antibody, IgG1, V domains shown)
VH: DVKLVESGGGLVKLGGSLKLSCAASGFTFSNYYMSWVRQTPEKRLELVAAINSDGGITYYLDTVKGRFTISRDNAKNTLYLQMSSLKSEDTALFYCARHRSGYFSMDYWGQGTSVTVSS
VL: DIVMTQSQRFMSTTVGDRVSITCKASQNVVSAVAWYQQKPGQSPKLLIYSASNRYTGVPDRFTGSGSGTDFTLTISNMQSEDLADFFCQQYSNYPWTFGGGTKLEIK
notes: also called MAbG250; MabG250
binding result: binds
